According to paper doi:10.1101/2021.05.25.445547:
Where “and” joins values, the source holds several entries; their conditions need not be identical. Equal values may be shown once. One block for each molecule: values may come before it.

Key:
[1] = target: optimized bait-PAR-Grb2 with inserted flexible linker sequences, GFP-fused (UniProt P62993); experiment: subcellular micropatterning
[2] = target: optimized bait-PAR-Grb2 with inserted flexible linker sequences, GFP-fused (UniProt P62993); experiment: TIR-FRAP on micropatterned bait
[3] = target: optimized bait-PAR-Grb2 with inserted flexible linker sequences, RFP-fused (UniProt P62993); experiment: subcellular micropatterning
[4] = target: T1, optimized bait-PAR-Grb2 with inserted flexible linker sequences, RFP-fused, P62993; experiment: TIR-FRAP on micropatterned bait; details: remark: other sources report otherwise
[5] = target: T1, optimized bait-PAR-Grb2 with inserted …; experiment: subcellular micropatterning; details: remark: other sources report otherwise

bait-normalized fluorescence contrast <c (prey/bait)>, after EGF [1]: 0.45 | bait-normalized fluorescence contrast <c (prey/bait)>, unstimulated cells [1]: 0.14 | halftime of dissociation (FRAP) [2]: 10 s | k slow (exchange rate, bi-exponential FRAP fit) [2]: 0.103 s⁻¹
Molecule: SHC-transforming protein 1 (Shc1), RFP-fused (from UniProt P29353 1-583) (natural protein)

EC50 [3]: 68 µM and 63 µM | dissociation half-life of Gab1 from Grb2 at 100 μM peptide [3]: 42 s | dissociation half-life of SOS1 from Grb2 at 100 μM peptide [3]: 36 s | maximum prey dissociation (Gab1 and SOS1 from Grb2) at 100 μM peptide [3]: 70 to 75%
Molecule: cell-permeable cyclic peptide cyclo(YpVNFΦrpPRR)

halftime of dissociation (FRAP) [4]: 13 s | k slow (exchange rate, bi-exponential FRAP fit) [4]: 0.074 s⁻¹ | bait-normalized fluorescence contrast <c (prey/bait)>, after EGF [5]: 0.56 | bait-normalized fluorescence contrast <c (prey/bait)>, basal conditions [5]: 0.55 | reduction of copatterning with 10 μM actinomycin D [5]: 25%
B1: son of sevenless protein 1 (SOS1), GFP-fused, Q07889 1-1333 (natural protein)
chain: MQAQQLPYEFFSEENAPKWRGLLVPALKKVQGQVHPTLESNDDALQYVEELILQLLNMLCQAQPRSASDVEERVQKSFPHPIDKWAIADAQSAIEKRKRRNPLSLPVEKIHPLLKEVLGYKIDHQVSVYIVAVLEYISADILKLVGNYVRNIRHYEITKQDIKVAMCADKVLMDMFHQDVEDINILSLTDEEPSTSGEQTYYDLVKAFMAEIRQYIRELNLIIKVFREPFVSNSKLFSANDVENIFSRIVDIHELSVKLLGHIEDTVEMTDEGSPHPLVGSCFEDLAEELAFDPYESYARDILRPGFHDRFLSQLSKPGAALYLQSIGEGFKEAVQYVLPRLLLAPVYHCLHYFELLKQLEEKSEDQEDKECLKQAITALLNVQSGMEKICSKSLAKRRLSESACRFYSQQMKGKQLAIKKMNEIQKNIDGWEGKDIGQCCNEFIMEGTLTRVGAKHERHIFLFDGLMICCKSNHGQPRLPGASNAEYRLKEKFFMRKVQINDKDDTNEYKHAFEIILKDENSVIFSAKSAEEKNNWMAALISLQYRSTLERMLDVTMLQEEKEEQMRLPSADVYRFAEPDSEENIIFEENMQPKAGIPIIKAGTVIKLIERLTYHMYADPNFVRTFLTTYRSFCKPQELLSLIIERFEIPEPEPTEADRIAIENGDQPLSAELKRFRKEYIQPVQLRVLNVCRHWVEHHFYDFERDAYLLQRMEEFIGTVRGKAMKKWVESITKIIQRKKIARDNGPGHNITFQSSPPTVEWHISRPGHIETFDLLTLHPIEIARQLTLLESDLYRAVQPSELVGSVWTKEDKEINSPNLLKMIRHTTNLTLWFEKCIVETENLEERVAVVSRIIEILQVFQELNNFNGVLEVVSAMNSSPVYRLDHTFEQIPSRQKKILEEAHELSEDHYKKYLAKLRSINPPCVPFFGIYLTNILKTEEGNPEVLKRHGKELINFSKRRKVAEITGEIQQYQNQPYCLRVESDIKRFFENLNPMGNSMEKEFTDYLFNKSLEIEPRNPKPLPRFPKKYSYPLKSPGVRPSNPRPGTMRHPTPLQQEPRKISYSRIPESETESTASAPNSPRTPLTPPPASGASSTTDVCSVFDSDHSSPFHSSNDTVFIQVTLPHGPRSASVSSISLTKGTDEVPVPPPVPPRRRPESAPAESSPSKIMSKHLDSPPAIPPRQPTSKAYSPRYSISDRTSISDPPESPPLLPPREPVRTPDVFSSSPLHLQPPPLGKKSDHGNAFFPNSPSPFTPPPPQTPSPHGTRRHLPSPPLTQEVDLHSIAGPPVPPRQSTSQHIPKLPPKTYKREHTHPSMHRDGPPLLENAHSS
